# Assays:
# [1] = molecular target: T1, Human Nav 1.5 α subunit with a carboxyl-terminal hemagglutinin (HA) epitope tag (human, UniProt Q14524 1-2016); experiment: atomic force microscopy (AFM) imaging; α subunit isolated through its HA tag from tsA 201 cells co-transfected with wild-type Myc-tagged β3; co-isolated sample on mica, imaged in air in tapping mode; conditions: both partners purified
# T1 construct: Nav 1.5 sodium channel α subunit, human; ~250 kDa; Construct provided by Dr. C; source: tsA 201 cells, transfected (pcDNA3N); immunoisolated from detergent extract (anti-HA agarose, HA peptide elution); not shown: HA, C-terminal, kept
# T1 sequence (Q14524 whole entry): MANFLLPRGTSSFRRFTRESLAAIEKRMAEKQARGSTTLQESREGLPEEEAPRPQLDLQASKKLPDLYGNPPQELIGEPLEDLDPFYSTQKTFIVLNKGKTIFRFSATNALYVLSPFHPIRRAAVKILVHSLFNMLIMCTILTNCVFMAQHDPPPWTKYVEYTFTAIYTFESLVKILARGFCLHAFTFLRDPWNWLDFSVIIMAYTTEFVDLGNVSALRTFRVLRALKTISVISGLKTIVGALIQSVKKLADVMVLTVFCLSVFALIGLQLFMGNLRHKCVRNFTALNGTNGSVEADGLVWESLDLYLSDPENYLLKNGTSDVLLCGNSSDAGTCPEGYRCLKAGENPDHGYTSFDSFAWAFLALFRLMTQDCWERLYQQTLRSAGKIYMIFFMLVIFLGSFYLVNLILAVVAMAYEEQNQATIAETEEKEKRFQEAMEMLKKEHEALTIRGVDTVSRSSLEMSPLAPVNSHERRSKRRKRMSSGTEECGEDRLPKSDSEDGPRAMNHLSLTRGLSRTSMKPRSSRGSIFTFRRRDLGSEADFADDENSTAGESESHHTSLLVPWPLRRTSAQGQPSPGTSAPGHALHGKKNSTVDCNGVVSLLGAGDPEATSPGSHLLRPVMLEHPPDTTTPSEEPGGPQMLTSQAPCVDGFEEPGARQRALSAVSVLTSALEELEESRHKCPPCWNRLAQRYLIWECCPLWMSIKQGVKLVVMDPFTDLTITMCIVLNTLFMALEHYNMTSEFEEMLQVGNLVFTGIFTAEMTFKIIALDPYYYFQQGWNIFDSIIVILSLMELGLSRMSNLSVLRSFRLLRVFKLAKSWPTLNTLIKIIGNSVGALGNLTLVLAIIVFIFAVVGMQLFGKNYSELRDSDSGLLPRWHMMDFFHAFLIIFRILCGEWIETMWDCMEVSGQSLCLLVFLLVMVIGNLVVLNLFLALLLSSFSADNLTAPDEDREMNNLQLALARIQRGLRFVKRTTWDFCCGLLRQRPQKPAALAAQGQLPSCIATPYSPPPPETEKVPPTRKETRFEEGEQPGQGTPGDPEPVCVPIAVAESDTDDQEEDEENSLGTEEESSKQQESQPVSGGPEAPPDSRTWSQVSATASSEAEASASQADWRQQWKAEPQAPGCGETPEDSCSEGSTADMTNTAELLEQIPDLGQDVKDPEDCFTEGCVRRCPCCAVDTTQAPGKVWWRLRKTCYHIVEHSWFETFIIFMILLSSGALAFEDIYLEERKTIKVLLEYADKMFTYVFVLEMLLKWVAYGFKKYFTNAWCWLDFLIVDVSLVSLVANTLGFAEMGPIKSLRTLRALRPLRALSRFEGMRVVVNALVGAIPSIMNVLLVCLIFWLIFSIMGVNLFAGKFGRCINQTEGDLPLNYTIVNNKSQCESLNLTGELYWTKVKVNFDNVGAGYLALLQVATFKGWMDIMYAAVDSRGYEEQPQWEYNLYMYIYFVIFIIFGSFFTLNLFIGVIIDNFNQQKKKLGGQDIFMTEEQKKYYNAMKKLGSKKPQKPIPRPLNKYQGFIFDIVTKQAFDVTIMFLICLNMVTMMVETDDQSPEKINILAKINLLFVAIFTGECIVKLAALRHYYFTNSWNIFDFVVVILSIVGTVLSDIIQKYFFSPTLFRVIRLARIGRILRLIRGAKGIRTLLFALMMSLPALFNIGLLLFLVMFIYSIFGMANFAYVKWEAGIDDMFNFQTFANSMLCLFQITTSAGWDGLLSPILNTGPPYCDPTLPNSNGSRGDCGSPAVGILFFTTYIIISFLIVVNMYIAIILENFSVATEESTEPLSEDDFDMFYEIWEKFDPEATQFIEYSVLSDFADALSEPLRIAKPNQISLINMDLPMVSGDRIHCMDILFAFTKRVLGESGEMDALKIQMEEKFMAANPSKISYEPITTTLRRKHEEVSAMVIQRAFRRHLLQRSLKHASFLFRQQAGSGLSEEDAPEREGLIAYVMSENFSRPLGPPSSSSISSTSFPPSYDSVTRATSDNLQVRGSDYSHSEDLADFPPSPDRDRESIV
# [2] = molecular target: the molecule itself; experiment: fluorescence photoactivated localization microscopy (FPALM) with pair correlation analysis; mEos2 fusions on the plasma membrane of fixed, transfected HEK293 cells; TIRF-PALM; 30 regions of 1 μm^2 on five cells; proteins per cluster
# [3] = molecular target: the molecule itself; experiment: crystal structure; deglycosylated β3 Ig domain; sitting drop, 1 M sodium citrate tribasic, 0.1 M CHES/sodium hydroxide pH 9.5, 19 °C; space group P3(1)21, three molecules in the asymmetric unit; 2.5 Å
binder,measurement,setting,value
"Full-length human β3 subunit with a carboxyl-terminal Myc epitope tag (natural protein, UniProt Q9NY72 23-215, looked up, Nav channel β3 subunit (SCN3B), human, full length; runs at ~40 kDa (glycosylated) and ~30 kDa (likely unglycosylated); numbers count on: the mature protein; also called Myc-tagged β3 subunit; wild-type β3; source: tsA 201 cells, transfected (pFastBacMam); immunoisolated from detergent extract (anti-Myc agarose, Myc peptide elution); in detergent extract of co-transfected cells for co-isolation …) FPVCVEVPSETEAVQGNPMKLRCISCMKREEVEATTVVEWFYRPEGGKDFLIYEYRNGHQEVESPFQGRLQWNGSKDLQDVSITVLNVTLNDSGLYTCNVSREFEFEAHRPFVKTTRLIPLRVTEEAGEDFTSVVSEIMMYILLVFLTLWLLIEMIYCYRKVSKAEEAAQENASDYLAIPSENKENSAVPVEE",stoichiometry N,[1],4
"Full-length β3 subunit tagged at the carboxyl terminus with mEos2 (natural protein, UniProt Q9NY72 23-215, looked up, Nav channel β3 subunit (SCN3B), full length; also called β3-mEos2; β3-mEOS2; source: HEK293 cells, transiently transfected, on the plasma membrane of fixed cells; not shown: mEos2, C-terminal, kept) FPVCVEVPSETEAVQGNPMKLRCISCMKREEVEATTVVEWFYRPEGGKDFLIYEYRNGHQEVESPFQGRLQWNGSKDLQDVSITVLNVTLNDSGLYTCNVSREFEFEAHRPFVKTTRLIPLRVTEEAGEDFTSVVSEIMMYILLVFLTLWLLIEMIYCYRKVSKAEEAAQENASDYLAIPSENKENSAVPVEE",stoichiometry N,[2],3
"Nav channel β3 subunit Ig domain with carboxyl-terminal hexa-His tag (domain or fragment, human, disulfide bonds Cys-2–24 and Cys-21–96, Nav channel β3 subunit (SCN3B), human, extracellular Ig domain; the cDNA also encodes the amino-terminal ER targeting signal, which was efficiently removed on secretion; 127 amino acids in total, theoretical mass 14.8 kDa; numbers count on: the mature protein; Deglycosylated with peptide:N-glycosidase F for crystallisation; chemically cross-linked for AUC; Surmise: the 127 residues are the mature …) VCVEVPSETEAVQGNPMKLRCISCMKREEVEATTVVEWFYRPEGGKDFLIYEYRNGHQEVESPFQGRLQWNGSKDLQDVSITVLNVTLNDSGLYTCNVSREFEFEAHRPFVKTTRLIPLRV",stoichiometry N,[3],3
